In data set [1] the target is T1, ubp6Δ proteasomes (Saccharomyces cerevisiae, UniProt P30656+P43588).
T1 construct: proteasomes purified from ubp6Δ mutants; TEV-ProA (TEV site + protein A), chromosomally integrated (C); made in house
Briefly: In vitro ub-cyclin B deubiquitination/degradation assay with purified yeast proteasomes. Particulars: for inhibition of cyclin B degradation: ubp6Δ proteasomes 135 nM, recombinant Ubp6 or Usp14 species 540 nM, Ubl and Ubl-MBP 1.35 μM, preincubated 5 min, immunoblot. The class given is biochemical. How it is done:
Proteasomes (135 nM) were incubated with ub-cyclin Bin the presence of 1 mM ATP and buffer (50 mM Tris [pH 7.51, 1 mM EDTA, 5 mM MgCl2) for the indicated times. Reactions were terminated by the addition of 5×SDS Laemmli loading buffer (Leggett, et al. (2002). Multiple associated proteins regulate proteasome structure and function. Mol. Cell. 10, 495-507) and boiled for 5 min. Where indicated, recombinant, purified Ubp6 or Usp14 species (540 nM) were preincubated with proteasomes for 5 min prior to the reaction. […] Unless otherwise noted, immunoblots were visualized with anti-cyclin B1 polyclonal antibodies. Polyclonal antibodies recognizing Ubp6, Rpn5, Rpn12, and ubiquitin were used as indicated. Ub-cyclin B was added in molar excess over proteasome, generally on the order of 25-fold, except for FIGS. 4C, 6A and 6B, where the substrate:enzyme ratio was increased by a factor of five.
In the experiments of FIGS. 1, 4 (except FIG. 4C), and 6C, time points were sampled after the preparation of a single reaction mixture. The zero time points therefore reflect a lag which represents the amount of time required to sample the first time point after having prepared the reaction mixture. […] In the experiments of FIGS. 2, 4C, and 6 (except 6C), each time point was carried out as an independent reaction. The zero time points were prepared in the presence of 5×LLB, and accordingly, no processing could occur before time zero.
Ubiquitination of cyclin B was carried out. Briefly, for each 30 μl reaction, Anaphase Promoting Complex (APC) was immunopurified from 600 μl of mitotic Xenopus egg extract with 12 μg of anti-Cdc27 antibodies (AF3.1, Santa Cruz Biotechnologies, Santa Cruz, Calif.) bound to 30 μl of Affiprep Protein A beads (Bio-Rad, Hercules, Calif.). Beads were washed three times with XB high salt (10 mM potassium HEPES pH 7.7, 500 mM KCl, 0.1 mM CaCl2, 1 mM MgCl2), two times with XB (same but with 100 mM KCl), and then three times into the reaction buffer (20 mM Tris pH 7.5, 100 mM KCl, 2.5 mM MgCl2, 2 mM ATP). Ubiquitination reactions contained immunoprecipitated APC on 30 μl of beads, and 30 μl of a mix containing recombinant MBP-human E1 at 200 μg/ml, histidine-tagged Ubc4 at 66 μg/ml, ubiquitin at 1.25 mg/ml, and 50 μg/ml of histidine-tagged cyclin B1/cdc2 complex expressed in baculovirus. Reactions were incubated for 90 minutes at 22° C. with agitation on a shaker at 1,000 RPM. Reaction supernatants were combined with the eluate from the wash of beads with 20 μl of reaction buffer. Reactions were either used fresh after preparation or frozen at −80° C. until use with purified proteasomes.

Data set [2] addresses T2, proteasomes (Saccharomyces cerevisiae, UniProt P30656+P43588).
T2 construct: A previously described procedure for purification of the proteasome; TEV-ProA (TEV site + protein A), chromosomally integrated (C); made in house
The data set is described as follows: Proteasome-dependent hydrolysis of suc-LLVY-AMC. The class given is biochemical, yeast. Particulars: o-PA treatment. The source says:
FIG. 1E is a graph depicting proteasome-dependent hydrolysis of suc-LLVY-AMC (SEQ ID NO: 1), a ubiquitin-independent fluorogenic proteasome substrate. Error bars reflect standard deviations.
The next studies were designed to determine whether the observed difference in cyclin B degradation was due specifically to Ubp6. Proteasomes were examined by Coomassie blue staining (FIG. 1D) and native gel electrophoresis, and no evidence for either an unexpected compositional difference or a gross structural abnormality in mutant proteasomes was found (see also Guterman and Glickman. (2004). Complementary roles for Rpn11 and Ubp6 in deubiquitination and proteolysis by the proteasome. J. Biol. Chem. 279, 1729-1738).

Data set [3] concerns the target T3, Ubp6 (Saccharomyces cerevisiae, UniProt P43593).
T3 construct: GST (N, cleaved yes); made in house; host or cells: bacteria (pGEX-4T-1, plasmid pDL74)
T3 sequence (P43593 1-499): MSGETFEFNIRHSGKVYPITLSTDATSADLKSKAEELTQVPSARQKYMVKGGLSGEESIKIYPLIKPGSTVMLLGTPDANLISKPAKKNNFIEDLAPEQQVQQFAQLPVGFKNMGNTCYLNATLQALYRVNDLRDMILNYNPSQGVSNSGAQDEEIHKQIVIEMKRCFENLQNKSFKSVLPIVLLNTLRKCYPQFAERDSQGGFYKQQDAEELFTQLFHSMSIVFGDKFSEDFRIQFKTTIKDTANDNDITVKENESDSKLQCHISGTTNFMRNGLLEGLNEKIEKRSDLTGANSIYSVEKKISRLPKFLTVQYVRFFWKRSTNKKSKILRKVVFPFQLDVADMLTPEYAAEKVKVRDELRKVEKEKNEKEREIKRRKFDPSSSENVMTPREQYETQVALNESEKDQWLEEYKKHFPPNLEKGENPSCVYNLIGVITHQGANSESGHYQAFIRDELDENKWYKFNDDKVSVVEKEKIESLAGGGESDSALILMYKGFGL
The data set is described as follows: Ub-AMC hydrolysis by Ubp6 treated with ubiquitin-vinyl sulfone. Particulars: Ub-VS 2.5 μM; Ub-AMC 0.5 μM. Type of data set: biochemical, yeast. How it is done: FIG. 9A depicts the result of an in vitro ub-cyclin B assay carried out with ubp6Δ proteasomes (135 nM) supplemented with wild-type Ubp6 (540 nM) and ubiquitinvinyl sulfone (2.5 μM), as indicated. The lower panel is anti-Ubp6 immunoblot showing modification of Ubp6 by Ub-VS. Ubp6 was present in four-fold molar excess over proteasome, and thus only a fraction of Ubp6 protein was modified.
FIG. 9B depicts the results of Ub-AMC (0.5 μM) hydroylsis assay.
As an alternate approach to assay non-catalytic inhibition, ubiquitin-vinyl sulfone (Ub-VS), an irreversible active site inhibitor of Ubp6, was used. Residual Ub-AMC hyrdolyzing activity in the presence of Ubp6-Ub-VS is at the level of background in this assay. […] Indeed the large excess of substrate over Ubp6 (see Methods described in Example 1) is inconsistent with a model in which Ubp6 inhibits degradation by sequestering substrate. […] Although these functions are distinct, each requires both the Ubl domain and the C-terminal domain. The Ubl domain serves in both cases to target Ubp6 to the proteasome, and that both functions are obligatorily executed on the proteasome.

Data set [4] deals with T1, ubp6Δ proteasomes. Briefly: Quantitation of proteasome inhibition by quantitative mass spectrometry of cyclin B. Type of data set: biochemical, yeast. Conditions: 20-minute incubation. How it is done:
A standard substrate degradation assay was carried out, and analyzed in parallel by SDS-PAGE followed by Coomassie blue staining and immunoblot with anti-cyclin B antibody. Immunoblots were used to identify and excise the cyclin B-containing regions of the Coomassie-stained gel, and the lanes were analyzed by mass spectrometry.
To quantify the extent of proteasome inhibition by Ubp6, a method of quantitative mass spectrometry was utilized. After a 20-minute incubation, approximately half of the total cyclin B was degraded by ubp6Δ proteasomes (FIG. 4C).

The target in data set [5] is T4, RP purified from a ubp6Δ mutant (Saccharomyces cerevisiae, UniProt P43588).
T4 construct: TEV-ProA (TEV site + protein A), chromosomally integrated (C); made in house
Briefly: Processing of ub-cyclin B by regulatory particle (RP). The class given is biochemical, yeast. Conditions: RP 135 nM, four-fold molar excess of Ubp6 species. How it is done:
FIGS. 6A and 6B depict the processing of ub-cyclin B by RP (ubp6Δ) in the presence or absence of purified Ubp6. Reactions were visualized by immunoblotting with anti-cyclin B antibody or anti-ubiquitin antibody, as indicated.
FIG. 12 is an illustration depicting the RP-mediated disassembly of Ub-cyclin B conjugates by Ubp6. Proteasome regulatory particle (135 nM) purified from a ubp6Δ strain was combined with a four-fold molar excess of Ubp6, Ubp6-ublΔ, or Ubp6-C118A, and Ub-Cyclin B, and incubated for the indicated times. Reactions were visualized by immunoblot with anti-ubiquitin antibody. *represents a non-ubiquitin immunoreactive band.
A previously described procedure for purification of the proteasome (Leggett, et al. (2002). Multiple associated proteins regulate proteasome structure and function. Mol. Cell. 10, 495-507) was modified by adding 1 mM ATP and 5 mM MgCl2 to all purification buffers, and by washing resins with 100 bed vol. of buffer containing 50 mM NaCl, as opposed to 50 bed vol. of buffer containing 100 mM NaCl. RP was purified in the presence of ATP and MgCl2 as described (Leggett et al., 2002).
Proteasomes (135 nM) were incubated with ub-cyclin Bin the presence of 1 mM ATP and buffer (50 mM Tris [pH 7.51, 1 mM EDTA, 5 mM MgCl2) for the indicated times. […]

Data set [6] concerns Ub-AMC. The data set is described as follows: Ub-AMC hydrolyzing activity of purified recombinant Ubp6 species. Type of data set: biochemical. Conditions: purified recombinant enzyme 0.5 μM. How it is done:
FIG. 8 is a graph depicting that the Ubp6-C118A mutant lacks deubiquitinating activity. Ub-AMC hydrolyzing activity of purified recombinant wild-type Ubp6 or Ubp6-C118A (0.5 μM). Ub-AMC, no enzyme control.

Data set [7] has as its target T5, proteasome (Saccharomyces cerevisiae, UniProt P30656+P43588).
T5 construct: A previously described procedure for purification of the proteasome; TEV-ProA (TEV site + protein A), chromosomally integrated (C); made in house
The data set is described as follows: Ub-Cdc34 binding assay (electrophoretic mobility shift of proteasome). Conditions: proteasome 4 pmoles, ub-Cdc34 8 pmoles, Ubp6-C118A 8 pmoles. Also on record: species or system yeast. How it is done:
Binding of ubiquitinated-Cdc34 (8 pmoles) to proteasome (4 pmoles) was carried by native gel electrophoresis followed by overlay of the fluorogenic activity-based probe, suc-LLVY-AMC (SEQ ID NO: 1), as previously described (Elsasser, et al. (2004). Rad23 and Rpn10 serve as alternative ubiquitin receptors for the proteasome. J. Biol. Chem. 279, 26817-26822). Ubp6 or Ubp6-C118A (8 pmoles) were preincubated with proteasomes prior to substrate addition.
(In general: A gel shift assay detects complexes by their altered migration in electrophoresis.)

The source of these data is patent publication US9201073B2, “Methods and compositions for enhancing proteasome activity” (President and Fellows of Harvard College, priority 2007, dated 2015).

As to `c1cnc2c(c1)ccc1cccnc12` [o-PA, o-phenanthroline, reference compound], the “deubiquitination and degradation of cyclin B” value in data set [1] (ubp6Δ proteasomes, o-PA 10 mM added 10 min prior to cyclin B) is “strongly inhibited”. Also, the LLVY-hydrolysis by proteasomes entry in data set [2] is on record as “no effect”.
For the molecule ubiquitin-vinyl sulfone [Ub-VS], the “catalytic activity of wild-type Ubp6 as measured by Ub-AMC hydrolysis” value in data set [3] was “completely eliminated”.

B1: Ubl: N-terminal ubiquitin-like domain of Ubp6 by itself (protein)
chain: MSGETFEFNIRHSGKVYPITLSTDATSADLKSKAEELTQVPSARQKYMVKGGLSGEESIKIYPLIKPGSTVMLLGTPDANLIS
As for B1, the “inhibition of cyclin B degradation” value in data set [1] is “no effect on cyclin B degradation”.

B2: Ubp6-C118A: catalytically inactive point mutant of Ubp6 (protein)
chain: MSGETFEFNIRHSGKVYPITLSTDATSADLKSKAEELTQVPSARQKYMVKGGLSGEESIKIYPLIKPGSTVMLLGTPDANLISKPAKKNNFIEDLAPEQQVQQFAQLPVGFKNMGNTAYLNATLQALYRVNDLRDMILNYNPSQGVSNSGAQDEEIHKQIVIEMKRCFENLQNKSFKSVLPIVLLNTLRKCYPQFAERDSQGGFYKQQDAEELFTQLFHSMSIVFGDKFSEDFRIQFKTTIKDTANDNDITVKENESDSKLQCHISGTTNFMRNGLLEGLNEKIEKRSDLTGANSIYSVEKKISRLPKFLTVQYVRFFWKRSTNKKSKILRKVVFPFQLDVADMLTPEYAAEKVKVRDELRKVEKEKNEKEREIKRRKFDPSSSENVMTPREQYETQVALNESEKDQWLEEYKKHFPPNLEKGENPSCVYNLIGVITHQGANSESGHYQAFIRDELDENKWYKFNDDKVSVVEKEKIESLAGGGESDSALILMYKGFGL
Take B2: the “inhibition of cyclin B degradation” value in data set [1] is “competent for inhibition”. Moreover, the “inhibition of degradation (cyclin B)” value in data set [4] is recorded as “approximately 70%”. Also, in data set [5], the “processing of ub-cyclin B conjugates by RP” value is reported as “no effect on substrate processing”. Moreover, the “deubiquitinating activity against the model substrate Ub-AMC” value in data set [6] is “completely devoid of deubiquitinating activity”. Besides, the “conjugate (ubiquitinated Cdc34) binding to the proteasome” value in data set [7] was “comparable conjugate binding”.
